B1: Apoptosis-associated speck-like protein containing a CARD, residues 114 to 194; numbered along this chain, Q9ULZ3 (parent)
chain: FIDQHRAALIARVTNVEWLLDALYGKVLTDEQYQAVRAEPTNPSKMRKLFSFTPAWNWTCKDLLLQALRESQSYLVEDLER

Variants of: B1
Assay: abundance fitness (aPCA) (normalised: wild type 0, dead -1); higher = more abundant; growth selection in yeast, the domain comes from the species named
Details: Homo sapiens

Abundance fitness of substitutions, site by site:
E77: A -0.209; G -0.481; V -0.658; L -0.428; Q -0.124; H -0.365; W -0.399; D -0.115; I -0.479; F -0.147; M -0.244; Y -0.491; T -0.63; P -0.66; C -0.616
L63: R -0.385; F -0.381; G -0.862; C -0.44; H -0.425; K -0.298; M 0.056; V -0.232; E -0.31; I -0.359; Q -0.243; N -0.556; S -0.61; T -0.325; P -0.438; Y -0.028; A -0.185; W -0.543; D -0.777
C60: F -0.162; I -0.473; V -0.461; P -0.625; Q 0.329; G 0.084; E 0.285; L -0.456; D 0.332; K 0.041; T 0.009; R -0.265; M 0.122; S 0.167; H 0.185; W -0.238
Q72: L -0.633; C -0.272; E 0.116; N 0.141; S -0.216; P -0.987; M -0.545; T -0.659; A -0.191; I -0.977; V -0.574; Y -0.332; R -0.691; H 0.009; G -0.627; K -0.626; W -0.615
S73: T -0.048; A -0.063; Y -0.167; N -0.022; E -0.218; F -0.551; M -0.266; P 0.32; C -0.257; R -0.025; D -0.338; G 0.067; V -0.517; W -0.302; K -0.289; Q -0.016; L -0.112; H -0.144; I -0.628
R69: W -0.679; M -0.505; N -0.581; L -0.502; E -0.29; D -0.859; V -0.378; Y -0.62; T -0.538; H -0.517; Q -0.716; A -0.54; C -0.367; P -0.753; I -0.195; F -0.636; K 0.031; G -0.736
V76: I -0.056; L -0.27; Y -0.538; F -0.637; T -0.558; P -0.632; A -0.698; R -0.92; W -0.611; S -1.05; G -0.587; D -0.312; K -0.598; H -0.959; Q -0.952; E -0.838; C -0.497
L79: I -0.455; A -0.726; D -0.508; G -0.882; E -0.774; F -0.678; K -0.857
L65: H -0.143; P -0.939; W -0.172; F -0.024; S -0.512; Y -0.098; G -0.611; N -0.548; D -0.563; T -0.343; A -0.074; Q -0.812; C -0.248; E -0.142; I -0.338; R -0.361; M -0.194
T59: Y -0.102; K 0; H 0.07; S -0.04; M -0.084; W 0.041; I -0.243; L -0.149; N 0.018; P -0.44; R 0.111; V -0.128
K61: M -0.388; D -0.534; R -0.437; Y 0.119; G -0.601; Q -0.618; I -0.968; V -0.649; L -0.901; W -0.003; E -0.337; N -0.52; A -0.332; C -0.379; H 0.028; F 0.22; P -0.806
L75: W -0.868; P -0.695; Q -0.651; M -0.647; D -0.819; S -0.669; C -0.839; H -0.611; A -0.671; E -0.561; T -0.924; V -0.408; K -0.944
A67: W -0.491; P -0.658; C -0.629; N -0.278; S -0.544; V -0.484; Y -0.239; D -1.02; T -0.452; R -0.622; H -0.766; I -0.372; L 0.033; K -0.446; Q -0.711
E70: K -0.116; C -0.202; S -0.265; V -0.211; T -0.181; Y -0.588; M -0.46; F -0.401; D -0.152; N -0.322; I -0.468; P -0.542; L -0.467; R -0.343; A -0.209
L68: F -0.477; A -0.733; N -0.54; M -0.449; C -0.688; W -1.18; Q -0.876; H -0.334; G -0.764; Y -0.777; S -0.838; D -1.01; I 0.001; P -0.569; V -0.527; E -0.886
L64: Y -0.75; T -0.513; V -0.123; E -0.944; K -0.918; I -0.192; A -0.343; S -0.853; M 0.163; D -0.519; C -0.481; Q -0.354; W -0.961; G -0.695; P -1.02; F 0.2
S71: E -0.958; A -0.469; W -0.874; L -0.816; G -0.479; M -0.526; C -0.453; K -0.538; N 0.161; I -0.813; F -0.8; R -0.529; Q -0.251; V -0.429; T -0.098; H -0.109; D -0.501; P -0.774
D62: E 0.047; Y -0.644; K -0.088; M -0.295; S -0.168; G -0.194; F -0.195; I -0.581; L -0.43; R -0.2; A -0.083; C -0.265; W -0.609; T -0.423; N -0.207; Q -0.037; P -0.768; V -0.646
Q66: H -0.695; R -0.026; C -0.487; T -0.323; P -0.48; A -0.371; I -0.178; K -0.059; M -0.252; E -0.148; D -0.174; V -0.481; S -0.322; L -0.6; N -0.529; W -0.801
D78: G -0.228; Y -0.218; S -0.119; V -0.45; E -0.045; N -0.291; T -0.34; P -0.687; I -0.186; C -0.124; L -0.167; H -0.034; W -0.141; K -0.303; A -0.286; Q -0.137
Y74: K 0.221; E 0.249; F -0.341; A 0.202; R -0.031; L 0.027; S 0.219; C 0.177; P -0.081; N 0.139; I -0.1; G 0.151; H 0.027; D 0.21; Q 0.265; T 0.138; M -0.103
